These results are taken from patent publication EP4553085A1 (Hangzhou Sumgen Biotech Co., Ltd., dated 2025).

To fix the notation:
B1: chimeric antibody 5E11-2 (antibody, V domains shown)
VH: EVKLEESGGGLVQPGGSMKLSCAASGFTFSDAWMDWVRQSPEKGLEWVAEIRSKPNNHATYYAESVKGRFTISRDDSKSSVYLQMNSLRAEDTGIYYCTRTTDYSMDYWGQGTSVTVSS
VL: DIQMTQSPASLAVSLGQRATISCRASQSVSASSYSYMHWYQQKPGQPPKLLIKYASNLQSGVPARFSGSGSGTDFTLNIHPVEEEDSATYYCQHSWEIPRTFGGGTKLEIK
B2: chimeric antibody 1A2-7 (antibody, V domains shown)
VH: QVQLQQPGAELVKPGASVKLSCKASGYTFTSYWMHWVKQRPGQGLEWIGEINPSNGRTNYNEKFKSKATLTVDKSSSTAYMQLNSLTSEDSAVYYCARDRYDEGNAMDYWGQGTSVTVSS
VL: DIVMTQTTSSLSASLGDRVTISCRASQDITNYLNWYQQKPDGTVKLLIYYTSRLHSGVPSRFSGSGSGTDYSLTISNLEQEDIATYFCQQGDTLPRTFGGGTKLEIK
B3: chimeric antibody 3G9-1 (antibody, V domains shown)
VH: QVQLQQPGAELVKPGASVKLSCKASGYTFTSYWMHWVKQRPGQGLEWIGEINPSNGRTNYNEKFKSKATLIVDKSSSTAYMQLSSLTSEDSAVYYCARGIYYGYDYAMDYWGQGTSVTVSS
VL: B2 VL with V3Q, Q6H, T30S, D92N, R96P
B4: chimeric antibody 3A2-18 (antibody, V domains shown)
VH: B2 VH with Q1E, M81V
VL: B2 VL

Substitutions are numbered along the chain they refer to.

The target of this test is T1, Human LILRB4/CD85k/ILT3 Protein (ECD, His Tag), Sino Biological (human, UniProt Q8NHJ6 22-259).
T1 construct: extracellular domain; Bought protein; it is not tied to this bought protein; also called LILRB4 protein; not shown: His tag
Nature of the test: ELISA, coated LILRB4 ECD-His. Background: ELISA stands for enzyme-linked immunosorbent assay.
As to B1, the binding result is reported as “binds”.
B2: the binding result is “binds”.
For B3, the binding result is “binds”.
Consider B4, for which the binding result is “binds”.
